Reference: patent publication US20200216495A1 (ADRX, published 2020)
“And” between values parts separate entries of the source, which are not always exact repeats. Equal values may be shown once. Read-outs that look alike come from different tables or passages of the source. Square brackets hold non-standard residues; d marks the D form. Ends that are not written are not given here. dCha = N[C@H](CC1CCCCC1)C(=O)O; dNle = CCCC[C@@H](N)C(=O)O

Columns and labels:
[1] = biological target: T1, Tau40 P301L protein (human); test: cell-based or functional assay
T1 sequence: WIKIRR

Tau40 P301L protein = Tau40 P301L protein (human); test: cell-based or functional assay; remark: listed apart in the source

Binder	IC50, Tau40 assay (ThT) [1] [µM]	IC50, Tau40 assay (ThT) (Tau40 P301L protein)
[dL][dK][dCha][dR][dI][dH][dY] [lkbrihy (PEPTIDE ID NO: 252)]	1.16	
[dW][dR][dNle][dK][dV][dR][dW] [wrukvrw (PEPTIDE ID NO: 258)]	1.25	
[dL][dK][dI][dR][dNle][dH][dY] [lkiruhy (PEPTIDE ID NO: 267)]	1.43	
[dL][dK][dNle][dR][dI][dH][dY] [lkurihy (PEPTIDE ID NO: 279)]	1.59	
[dNle][dR][dL][dK][dV][dR][dW] [urlkvrw (PEPTIDE ID NO: 282)]	1.63	
[dW][dR][dCha][dK][dV][dR][dW] [wrbkvrw (PEPTIDE ID NO: 286)]	1.65	
[dL][dK][dNle][dR][dNle][dH][dY] [lkuruhy (PEPTIDE ID NO: 287)]	1.65	
[dCha][dR][dL][dK][dV][dR][dW] [brlkvrw (PEPTIDE ID NO: 293)]	1.82	
[dNle][dK][dI][dR][dI][dH][dY] [ukirihy (PEPTIDE ID NO: 203)]	0.73	
[dW][dR][dL][dK][dCha][dR][dW] [wrlkbrw (PEPTIDE ID NO: 307)]	2.11	
[dW][dR][dL][dK][dNle][dR][dW] [wrlkurw (PEPTIDE ID NO: 308)]	2.12	
[dW][dD][dL][dR][dL][dQ][dY][dW] [wdlrlqyw]		8.33 µM and 10.1 µM
[dA][dW][dA][dK][dV][dR][dW] [awakvrw]		8.38 µM
[dW][dK][dV][dW]G[dR][dV][dW] (not fully specified (residue 5); printed as wkvwgrvw) [wkvwgrvw]		8.42 µM and 14.1 µM
[dW][dF][dL][dR][dI][dH][dW] [wflrihw]		8.71 µM
[dW][dR][dT][dK][dT][dR][dW] [wrtktrw]		8.93 µM
[dI][dL][dK][dI][dV][dW] [ilkivw]		9.32 µM
[dI][dH][dY][dH][dL][dK][dI][dR] [ihyhlkir]		9.7 µM
[dE][dR][dL][dR][dI][dH][dW] [erlrihw]		9.9 µM
[dW][dK][dL][dK][dL][dW][dW][dW] [wklklwww]		9.91 µM and 10.8 µM
[dW][dR][dL][dR][dI][dH][dE] [wrlrihe]		10 µM
[dW][dE][dL][dK][dV][dE][dW] [welkvew]		10 µM

Binder	IC50, Tau40 assay (ThT) [1] [µM]	IC50, Tau40 assay (ThT) (Tau40 P301L protein)
[dF][dK][dI][dE][dI][dE][dY][dH] [fkieieyh]		10.3 µM
[dW][dK][dV][dW]G[dK][dV][dW] (not fully specified (residue 5); printed as wkvwgkvw) [wkvwgkvw]		10.4 µM and 10.6 µM
[dL][dK][dA][dR][dI][dH][dY][dH] [lkarihyh]		10.4 µM
[dA][dR][dL][dK][dA][dR][dW] [arlkarw]		11.2 µM
[dF][dR][dL][dK][dI][dR][dW] [frlkirw]		11.7 µM and 12.2 µM
[dW][dE][dV][dQ][dV][dE][dW] [wevqvew]		11.7 µM
[dL][dK][dT][dR][dI][dH][dY] [lktrihy]		12.5 µM
[dA][dR][dA][dR][dI][dH][dW] [ararihw]		12.6 µM
[dW][dR][dA][dK][dA][dR][dW] [wrakarw]		12.7 µM
[dT][dI][dK][dL][dV][dW] [tiklvw]		13.7 µM and 14.3 µM
[dW][dD][dL][dD][dV][dR][dW] [wdldvrw]		14 µM
[dF][dE][dL][dE][dI][dE][dW][dH] [feleiewh]		14.3 µM and 19.5 µM
[dW][dR][dL][dK][dV] [wrlkv]		15.1 µM
[dL][dK][dR][dR][dI][dH][dY][dH] [lkrrihyh]		15.4 µM
[dE][dL][dK][dI][dV][dW] [elkivw]		16 µM and 16.6 µM
[dW][dR][dL][dK][dV][dR] [wrlkvr]		18.5 µM
[dW][dK][dV][dP][dV][dR][dY][dW] [wkvpvryw]		19 µM and 19.8 µM
[dW][dR][dH][dK][dH][dR][dW] [wrhkhrw]		19.2 µM
[dW][dR][dE][dK][dV][dR][dW][dW] [wrekvrww]		19.3 µM
[dL][dK][dI][dA][dI][dH][dY][dH] [lkiaihyh]		19.5 µM
[dL][dE][dF][dE][dL][dK][dY][dW] [lefelkyw]		19.7 µM
